From publication doi:10.1101/2024.11.06.622243, “The MRAP2 accessory protein directly interacts with melanocortin-3 receptor to enhance signaling” (bioRxiv, 2024)

Columns and labels:
[1] = target: the molecule itself; test: single-molecule pull-down (SiMPull); one-colour SiMPull with photobleaching step analysis: HA-Halo-tagged protein labelled on HEK293 cells with membrane-impermeable CA-Sulfo646, lysed in 0.5% LMNG/0.05% CHS, immobilised by biotinylated anti-HA antibody on a PEG-passivated slide, TIRF imaging
[2] = target: T1, HA-Halo-MC3R (melanocortin-3 receptor) (human, UniProt P41968 1-323, CA-Sulfo646 dye on the Halo tag); test: single-molecule pull-down (SiMPull); two-colour SiMPull: HA-Halo-tagged bait (CA-Sulfo646) and FLAG-CLIP-tagged prey (BC-DY547) co-expressed in HEK293 cells (300 ng Halo and 600 ng CLIP plasmid), labelled before lysis in 0.5% LMNG/0.05% CHS, bait immobilised by biotinylated anti-HA antibody, co-localisation and photobleaching steps by TIRF; details: partners not purified
T1 construct: human melanocortin-3 receptor (MC3R); pRK5 construct with an N-terminal signal peptide from rat mGluR2 before the HA and Halo tags; also called ss-HA-Halo-MC3R; source: HEK293, transiently transfected, in lysate (LMNG-CHS); not shown: HA, N-terminal, kept; Halo, N-terminal, kept
T1 sequence (P41968 whole entry): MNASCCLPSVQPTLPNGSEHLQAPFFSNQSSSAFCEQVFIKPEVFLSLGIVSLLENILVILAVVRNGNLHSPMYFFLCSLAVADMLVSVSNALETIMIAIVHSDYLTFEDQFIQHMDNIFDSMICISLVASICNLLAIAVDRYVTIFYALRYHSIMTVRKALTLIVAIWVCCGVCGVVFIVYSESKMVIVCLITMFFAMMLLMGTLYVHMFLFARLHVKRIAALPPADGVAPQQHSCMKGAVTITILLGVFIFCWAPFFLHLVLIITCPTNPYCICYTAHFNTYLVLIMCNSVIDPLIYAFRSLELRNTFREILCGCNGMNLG

B1: mGluR2 (receptor, UniProt P31421 19-872, looked up)
chain: EGPAKKVLTLEGDLVLGGLFPVHQKGGPAEECGPVNEHRGIQRLEAMLFALDRINRDPHLLPGVRLGAHILDSCSKDTHALEQALDFVRASLSRGADGSRHICPDGSYATHSDAPTAVTGVIGGSYSDVSIQVANLLRLFQIPQISYASTSAKLSDKSRYDYFARTVPPDFFQAKAMAEILRFFNWTYVSTVASEGDYGETGIEAFELEARARNICVATSEKVGRAMSRAAFEGVVRALLQKPSARVAVLFTRSEDARELLAATQRLNASFTWVASDGWGALESVVAGSERAAEGAITIELASYPISDFASYFQSLDPWNNSRNPWFREFWEERFHCSFRQRDCAAHSLRAVPFEQESKIMFVVNAVYAMAHALHNMHRALCPNTTHLCDAMRPVNGRRLYKDFVLNVKFDAPFRPADTDDEVRFDRFGDGIGRYNIFTYLRAGSGRYRYQKVGYWAEGLTLDTSFIPWASPSAGPLPASRCSEPCLQNEVKSVQPGEVCCWLCIPCQPYEYRLDEFTCADCGLGYWPNASLTGCFELPQEYIRWGDAWAVGPVTIACLGALATLFVLGVFVRHNATPVVKASGRELCYILLGGVFLCYCMTFVFIAKPSTAVCTLRRLGLGTAFSVCYSALLTKTNRIARIFGGAREGAQRPRFISPASQVAICLALISGQLLIVAAWLVVEAPGTGKETAPERREVVTLRCNHRDASMLGSLAYNVLLIALCTLYAFKTRKCPENFNEAKFIGFTMYTTCIIWLAFLPIFYVTSSDYRVQTTTMCVSVSLSGSVVLGCLFAPKLHIILFQPQKNVVSHRAPTSRFGSAAPRASANLGQGSGSQFVPTVCNGREVVDSTTSSL
notes: metabotropic glutamate receptor 2 (mGluR2), control of the SiMPull photobleaching analysis; also called known dimeric GPCR mGluR2; source: HEK293, transfected, in lysate
B1 was tested, and the “stoichiometry N” value [1] was 2.

B2: FLAG-CLIP-MRAP2 (melanocortin-2 receptor accessory protein-2) (natural protein, human, UniProt Q96G30 1-205, looked up)
chain: MSAQRLISNRTSQQSASNSDYTWEYEYYEIGPVSFEGLKAHKYSIVIGFWVGLAVFVIFMFFVLTLLTKTGAPHQDNAESSEKRFRMNSFVSDFGRPLEPDKVFSRQGNEESRSLFHCYINEVERLDRAKACHQTTALDSDVQLQEAIRSSGQPEEELNRLMKFDIPNFVNTDQNYFGEDDLLISEPPIVLETKPLSQTSHKDLD
modifications: BC-DY547 dye on the CLIP tag
notes: human melanocortin-2 receptor accessory protein 2 (MRAP2); pRK5 construct with an N-terminal signal peptide from rat mGluR2 before the tags; also called ss-FLAG-CLIP-MRAP2; source: HEK293, transiently transfected, in lysate (LMNG-CHS); not shown: FLAG, N-terminal, kept; CLIP, N-terminal, kept
In the case of B2, the “stoichiometry N” value [2] is reported as 1 MRAP2 per MC3R.
